According to US20240016931A1 (JIANGSU HENGRUI PHARMACEUTICALS, published 2024):
Changes are numbered by the printed parent chain. Names and notes keep the numbering of the source.

B1: hu3-06 (antibody, human IgG1, kappa, V domains shown)
VH: EVQLVQSGAEVKKPGASVKVSCKASGYTFTDDYMNWVRQAPGQRLEWMGIISPYNGGTSYNQKFKGRVTLTVDKSASTAYMELSSLRSEDTAVYYCAREDYDYDGYAMDHWGQGTTVTVSS
VL: EIVLTQSPATLSLSPGERATLSCRASSSVSYMHWYQQKPGQAPRPWIYATSNLASGVPARFSGSGSGTDYTLTISRLEPEDFAVYYCQQWSSNRTFGGGTKVEIKR
notes: IgG1-YTE, kappa
B2: hu3-04 (antibody, human IgG1, kappa, V domains shown)
VH: B1 VH
VL: B1 VL with P45L, W46L, V57I, Y70F
notes: IgG1-YTE, kappa
B3: hu3-01 (antibody, human IgG1, kappa, V domains shown)
VH: B1 VH with L70I, V72R, K74T
VL: B1 VL with W46L, V57I
notes: IgG1-YTE, kappa
B4: hu3-10 (antibody, human IgG1, kappa, V domains shown)
VH: B1 VH with R38K, M48I, V68A
VL: B1 VL with D69S
notes: IgG1-YTE, kappa
B5: hu3-08 (antibody, human IgG1, kappa, V domains shown)
VH: B1 VH with R38K, M48I, V68A
VL: B1 VL with W46L, V57I
notes: IgG1-YTE, kappa
B6: hu3-12 (antibody, human IgG1, kappa, V domains shown)
VH: B1 VH with H110Y
VL: B1 VL with D69S, W90S, S91D, S92N, N93V, T95G
notes: IgG1-YTE, kappa; also called hu3VH2-H110Y + hu3VL5
B7: hu3-05 (antibody, human IgG1, kappa, V domains shown)
VH: B1 VH
VL: B1 VL with W46L, V57I
notes: IgG1-YTE, kappa
B8: hu3-02 (antibody, human IgG1, kappa, V domains shown)
VH: B1 VH with L70I, V72R, K74T
VL: B1 VL
notes: IgG1-YTE, kappa
B9: hu3-09 (antibody, human IgG1, kappa, V domains shown)
VH: B1 VH with R38K, M48I, V68A
VL: B1 VL
notes: IgG1-YTE, kappa
B10: hu3-07 (antibody, human IgG1, kappa, V domains shown)
VH: B1 VH
VL: B1 VL with D69S
notes: IgG1-YTE, kappa
B11: hu3-03 (antibody, human IgG1, kappa, V domains shown)
VH: B1 VH with L70I, V72R, K74T
VL: B1 VL with D69S
notes: IgG1-YTE, kappa
B12: hu179-09 (antibody, human IgG1, kappa)
heavy: EVQLVQSGAEVKKPGSSVKVSCKASGYTFSNYLIEWVRQAPGQGLEWIGVIDPGNGDTNYNENFKGRATLTADKSTSTAYIELSSLRSEDTAVYYCAREDNTGTAFDYWGQGTTVTVSSASTKGPSVFPLAPSSKSTSGGTAALGCLVKDYFPEPVTVSWNSGALTSGVHTFPAVLQSSGLYSLSSVVTVPSSSLGTQTYICNVNHKPSNTKVDKKVEPKSCDKTHTCPPCPAPELLGGPSVFLFPPKPKDTLYITREPEVTCVVVDVSHEDPEVKFNWYVDGVEVHNAKTKPREEQYNSTYRVVSVLTVLHQDWLNGKEYKCKVSNKALPAPIEKTISKAKGQPREPQVYTLPPSRDELTKNQVSLTCLVKGFYPSDIAVEWESNGQPENNYKTTPPVLDSDGSFFLYSKLTVDKSRWQQGNVFSCSVMHEALHNHYTQKSLSLSPGK
light: SIVMTQTPLSLSVTPGQPASISCKASQSVSSDVTWYLQKPGQSPQLLIYYVSNHYTGVPDRFSGSGSGTDFTLKISRVEAEDVGVYYCQQHHRFPLTFGQGTKLEIKRTVAAPSVFIFPPSDEQLKSGTASVVCLLNNFYPREAKVQWKVDNALQSGNSQESVTEQDSKDSTYSLSSTLTLSKADYEKHKVYACEVTHQGLSSPVTKSFNRGEC
notes: IgG1-YTE, kappa
B13: hu179-10 (antibody, human IgG1, kappa, V domains shown)
VH: EVQLVQSGAEVKKPGSSVKVSCKASGYTFSNYLIEWVRQAPGQGLEWIGVIDPGNGDTNYNENFKGRATLTADKSTSTAYIELSSLRSEDTAVYYCAREDNTGTAFDYWGQGTTVTVSS
VL: SIVMTQTPLSLSVTPGQPASISCKASQSVSSDVTWYLQKPGQSPQLLIYYVSNHYTGVPDRFSGSGSGTDFTFKISRVEAEDVGVYYCQQHHRFPLTFGQGTKLEIKR
notes: IgG1-YTE, kappa
B14: hu179-17 (antibody, human IgG1, kappa)
heavy: B12 heavy with T28A, I81M
light: B12 light
notes: IgG1-YTE, kappa
B15: hu179-19 (antibody, human IgG1, kappa, V domains shown)
VH: B13 VH with T28A, I81M
VL: B13 VL with S67Y, F73L
notes: IgG1-YTE, kappa
B16: hu179-11 (antibody, human IgG1, kappa, V domains shown)
VH: B13 VH
VL: B13 VL with S67Y, F73L
notes: IgG1-YTE, kappa
B17: hu179-16 (antibody, human IgG1, kappa)
heavy: B12 heavy with T28A, I81M
light: B12 light with S1D
notes: IgG1-YTE, kappa
B18: hu179-18 (antibody, human IgG1, kappa, V domains shown)
VH: B13 VH with T28A, I81M
VL: B13 VL
notes: IgG1-YTE, kappa
B19: hu179-08 (antibody, human IgG1, kappa)
heavy: B12 heavy
light: B12 light with S1D
notes: IgG1-YTE, kappa

What follows are binders tested against T1, His-tagged human TSLP antigen (huTSLP-his) (human) (assay: ELISA, coated huTSLP-his;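 further: binding of antibodies to plate-bound TSLP read as absorbance at 450 nm after TMB colour development, EC50 derived from binding curves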).
T1 construct: Secreted from HEK293E and purified on nickel; whole entry named; also called Human TSLP-his
Procedure: The plate was incubated at 4° C. overnight. After the liquid was discarded, 5% skim milk (skim milk powder from Brightdairy) blocking solution diluted with PBS was added at 200 μL/well, and the plate was incubated in an incubator at 37° C. for 2 h for blocking. After the blocking, the blocking solution was discarded, and the plate was washed 3 times with a PBST buffer (PBS containing 0.1% (v/v) tween-20, pH 7.4). […] After the incubation, the plate was washed 3 times with PBST. […] After the plate was washed 6 times with PBST, a TMB chromogenic substrate (KPL, 52-00-03) was added at 50 μL/well, and the plate was incubated at room temperature for 10-15 min. Then, 1 M H₂SO₄ was added at 50 μL/well to stop the reaction. The absorbance at 450 nm was read with a NOVOStar microplate reader, and the EC₅₀ values for the binding of the TSLP antibodies to TSLP were calculated.

| EC50 [nM] | Binder |
| --- | --- |
| 0.594 | B1 |
| 0.435 | B2 |
| 0.849 | B3 |
| 0.388 | B4 |
| 0.469 | B5 |
| 0.152 | B6 |
| 0.517 | B7 |
| 0.628 | B8 |
| 0.494 | B9 |
| 0.385 | B10 |
| 0.554 | B11 |
| 0.157 | B12 |
| 0.19 | B13 |
| 0.218 | B14 |
| 0.162 | B15 |
| 0.137 | B16 |
| 0.229 | B17 |
| 0.246 | B18 |
| 0.162 | B19 |
